Data on 1 protein can be found in doi:10.1101/2022.11.09.514853 (bioRxiv, 2022).

This series deals with the molecule itself. In words: cryo-EM structure.

B1: human GluN2D, C-terminal domain truncated (M1-P879), Strep-tag II (receptor, UniProt O15399 28-879, looked up)
chain: FPEEAPGPGGAGGPGGGLGGARPLNVALVFSGPAYAAEAARLGPAVAAAVRSPGLDVRPVALVLNGSDPRSLVLQLCDLLSGLRVHGVVFEDDSRAPAVAPILDFLSAQTSLPIVAVHGGAALVLTPKEKGSTFLQLGSSTEQQLQVIFEVLEEYDWTSFVAVTTRAPGHRAFLSYIEVLTDGSLVGWEHRGALTLDPGAGEAVLSAQLRSVSAQIRLLFCAREEAEPVFRAAEEAGLTGSGYVWFMVGPQLAGGGGSGAPGEPPLLPGGAPLPAGLFAVRSAGWRDDLARRVAAGVAVVARGAQALLRDYGFLPELGHDCRAQNRTHRGESLHRYFMNITWDNRDYSFNEDGFLVNPSLVVISLTRDRTWEVVGSWEQQTLRLKYPLWSRYGRFLQPVDDTQHLTVATLEERPFVIVEPADPISGTCIRDSVPCRSQLNRTHSPPPDAPRPEKRCCKGFCIDILKRLAHTIGFSYDLYLVTNGKHGKKIDGVWNGMIGEVFYQRADMAIGSLTINEERSEIVDFSVPFVETGISVMVARSNGTVSPSAFLEPYSPAVWVMMFVMCLTVVAVTVFIFEYLSPVGYNRSLATGKRPGGSTFTIGKSIWLLWALVFNNSVPVENPRGTTSKIMVLVWAFFAVIFLASYTANLAAFMIQEEYVDTVSGLSDRKFQRPQEQYPPLKFGTVPNGSTEKNIRSNYPDMHSYMVRYNQPRVEEALTQLKAGKLDAFIYDAAVLNYMARKDEGCKLVTIGSGKVFATTGYGIALHKGSRWKRPIDLALLQFLGDDEIEMLERLWLSGICHNDKIEVMSSKLDIDNMAGVFYMLLVAMGLSLLVFAWEHLVYWRLRHCLGP
B1: the binding result was “binds”.
